The text below walks through data of patent US9012420B2, “Aptamer for chymase, and use thereof” (Ribomic Inc., priority 2009, dated 2015).

Oligonucleotides are written 5' to 3', each unit as a sugar letter and its base; * is a phosphorothioate linkage, no mark a phosphodiester; rarer units and linkages stand in square brackets, end groups in braces. Plain capitals give the bases only. r = 2'-OH (RNA); f = 2'-fluoro

Sequences and labels used below:
T1: chymase (Homo sapiens, UniProt P23946)
T1 sequence (P23946 22-247): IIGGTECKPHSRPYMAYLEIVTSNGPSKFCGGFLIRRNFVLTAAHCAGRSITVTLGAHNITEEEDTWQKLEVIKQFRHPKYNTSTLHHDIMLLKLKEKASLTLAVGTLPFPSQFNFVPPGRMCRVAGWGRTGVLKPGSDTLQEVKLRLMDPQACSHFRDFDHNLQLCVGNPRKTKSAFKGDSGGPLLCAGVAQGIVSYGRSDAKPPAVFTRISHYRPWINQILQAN

T2: chymase (recombinant) (UniProt P23946 P23946:22-247)
T2 sequence: T1 sequence (P23946 22-247)

B1: GGGACGGUAGGAAUUCGUCCCUCAUGUCUAUUUUGCAGAUAGACUUAAAGCAAACAUAGAAGAGCGGCCGC (nucleic acid)
chain: rGrGrGrAfCrGrGfUrArGrGrArAfUfUfCrGfUfCfCfCfUfCrAfUrGfUfCfUrAfUfUfUfUrGfCrArGrAfUrArGrAfCfUfUrArArArGfCrArArAfCrAfUrArGrArArGrArGfCrGrGfCfCrGfC
B2: GGGACGGUAGGAAUUCGUCCUCAUGUCUAUUUUGCAGAUAGACUUAAAGCAAACAUAGAAGAGCGGCCGC (nucleic acid)
chain: rGrGrGrAfCrGrGfUrArGrGrArAfUfUfCrGfUfCfCfUfCrAfUrGfUfCfUrAfUfUfUfUrGfCrArGrAfUrArGrAfCfUfUrArArArGfCrArArAfCrAfUrArGrArArGrArGfCrGrGfCfCrGfC
B3: GGGACGGUAGGAAUUCGUCCCUCUUGUCUAUUUUGCAGAUAGACUUAAAGCAAACAUAGAAGAGCGGCCGC (nucleic acid)
chain: rGrGrGrAfCrGrGfUrArGrGrArAfUfUfCrGfUfCfCfCfUfCfUfUrGfUfCfUrAfUfUfUfUrGfCrArGrAfUrArGrAfCfUfUrArArArGfCrArArAfCrAfUrArGrArArGrArGfCrGrGfCfCrGfC
B4: GGGACGGUAGGAAUUCAGCUGACUCCAAUGCACACGUAGAUAGAGUUAAAACGUUGCAUAGAAGAGCGGCCGC (nucleic acid)
chain: rGrGrGrAfCrGrGfUrArGrGrArAfUfUfCrArGfCfUrGrAfCfUfCfCrArAfUrGfCrAfCrAfCrGfUrArGrAfUrArGrArGfUfUrArArArAfCrGfUfUrGfCrAfUrArGrArArGrArGfCrGrGfCfCrGfC
modifications: aptamer
B5: GGGACGGUAGGAAUUCUGCCGCAACCCAAUGAAAACGAAGAUAGAGAUAAAUCGAACAUAGAAGAGCGGCCGC (nucleic acid)
chain: rGrGrGrAfCrGrGfUrArGrGrArAfUfUfCfUrGfCfCrGfCrArAfCfCfCrArAfUrGrArArArAfCrGrArArGrAfUrArGrArGrAfUrArArAfUfCrGrArAfCrAfUrArGrArArGrArGfCrGrGfCfCrGfC
modifications: aptamer
B6: GGGACGGUAGGAAUUCGUCGAUUCUACAGAUAGAGAUAAAGUAGAAUUUAACAAAACAUAGAAGAGCGGCCGC (nucleic acid)
chain: rGrGrGrAfCrGrGfUrArGrGrArAfUfUfCrGfUfCrGrAfUfUfCfUrAfCrArGrAfUrArGrArGrAfUrArArArGfUrArGrArAfUfUfUrArAfCrArArArAfCrAfUrArGrArArGrArGfCrGrGfCfCrGfC
modifications: aptamer
B7: SEQ 32 (ssRNA)
RNA: GGGACGGUAGGAAUUCGUCCUCAUGUCUAUUUUGCAGAUAGACUUAAAGCAAACAUAGAAGAGCGGCCGC
modifications: 2'-F pyrimidines
B8: SEQ 20 (ssRNA)
RNA: GGGACGGUAGGAAUUCAAAAUCAGCUGAUUUGUAAUUUUUUUACACAGGCAAAACACAUAGAAGAGCGGCCGC
modifications: 2'-F pyrimidines
B9: SEQ 34 (ssRNA)
RNA: GGGACGGUAGGAAUUCUGCCGCAACCCAAUGAAAACGAAGAUAGAGAUAAAUCGAACAUAGAAGAGCGGCCGC
modifications: 2'-F pyrimidines
B10: SEQ 31 (ssRNA)
RNA: GGGACGGUAGGAAUUCGUCCCUCAUGUCUAUUUUGCAGAUAGACUUAAAGCAAACAUAGAAGAGCGGCCGC
modifications: 2'-F pyrimidines
B11: SEQ 33 (ssRNA)
RNA: GGGACGGUAGGAAUUCCUGUCUUUUCCCACGCAACAAAUUACAGAGCUUUGCAAAACAUAGAAGAGCGGCCGC
modifications: 2'-F pyrimidines
B12: SEQ 22 (ssRNA)
RNA: GGGACGGUAGGAAUUCCCGACACAAAAUGUGUGAUUAAUUCCGAACAACAAAGUAACAUAGAAGAGCGGCCGC
modifications: 2'-F pyrimidines
B13: SEQ 28 (ssRNA)
RNA: GGGACGGUAGGAAUUCAAUUUCUUUCUAUUCUCACCUGAGUAUAUCAGGCACAGUACAUAGAAGAGCGGCCGC
modifications: 2'-F pyrimidines

The target in the first series is T1, chymase. Kind of series: Surface plasmon resonance (Biacore T100), aptamer immobilized on SA chip, chymase injected as analyte. Type of series: binding. The conditions noted are these: Table 1; about 1000 RU nucleic acid immobilized, chymase 0.2 μM analyte, running buffer solution A; compared with 40N. Here is the method: Binding strength is measured using Biacore T100 (manufactured by GE Healthcare). In a method of measurement, the aptamer is first immobilized onto a sensor chip, the amount immobilized being about 1000 RU. 20 μL of a chymase solution for analyte, prepared at 0.2 μM, is injected, and the binding of chymase to the aptamer is detected. An RNA comprising a random nucleotide sequence of 30 or 40 nucleotides is used as a negative control.
The binding activities against chymase of the nucleic acids shown by SEQ ID NO: 4-20 and 22-34 were determined by the surface plasmon resonance method using Biacore T100 (manufactured by GE Healthcare). The sensor chip used was the SA chip, which had streptavidin immobilized thereon. Bound thereto was about 1500 RU of a 16-nucleotide Poly dT with biotin bound to the 5′ end thereof. […] 20 μL of chymase for analyte, prepared at 0.2 μM, was injected. Solution A was used as a running buffer.
The binding activities against chymase of the nucleic acids shown by SEQ ID NO: 38-48 were evaluated by the surface plasmon resonance method. In the evaluations for SEQ ID NO: 38-48, measurements were taken in the same manner as Example 1. Solution C was used as a running buffer.
For B1, the “Binding activity as determined using Biacore” value (“Binding activity as determined” for short) was “equivalent binding activity compared with 40N”.

Consider B2, for which the “Binding activity as determined” value was “equivalent binding activity compared with 40N”.

For B3, the “Binding activity as determined” value is recorded as “higher binding activity than 40N”.

In the case of B4, the “Binding activity as determined” value is listed as “higher binding activity than 40N”.

For B5, the “Binding activity as determined” value is listed as “equivalent binding activity compared with 40N”.

As for B6, the “Binding activity as determined” value is reported as “higher binding activity than 40N”.

Another series has as its target T2, chymase (recombinant). In words: inhibition; SPR +. Conditions: tags: SIGMA, expressed in yeast. The procedure: (§1) Here, Suc is a protecting succinyl group, and MCA is a 4-methylcoumaryl-7-amide group; upon cleavage of the C-terminal side of phenylalanine, AMC (7-amino-4-methyl-coumarine) is released. By detecting the fluorescence of this AMC, the enzyme activity of chymase can be determined. The assay was performed using a 96-well plate (F16 Black Maxisorp Fluoronunc, manufactured by Nunc), with a reaction mixture volume of 100 μL, in solution C as a buffer solution. First, each nucleic acid was serially diluted to 0.0027-2 μM concentrations in solution C to obtain 50 μL solutions. After 10 μL of the 1 mM substrate prepared in solution C was added thereto, the plate was set to the microplate reader SpectraMax190 (manufactured by Molecular Devices Corporation), and incubated at 37° C. for 5 minutes. Separately, 0.05 μg (or 0.005 μg) of chymase (recombinant, manufactured by SIGMA) was diluted in solution C to obtain a 40 μL chymase solution, and incubated at 37° C. for 5 minutes. The chymase solution was added to the mixture of the nucleic acid and substrate to initiate an enzyme reaction. The final chymase concentration in the reaction mixture was 16.7 nM (or 1.67 nM), the final substrate concentration being 100 μM. The plate containing the reaction mixture was set to the microplate reader SpectraMax190 (manufactured by Molecular Devices Corporation), and examined for time-dependent changes in the fluorescence intensity at 37° C. for 5 minutes (or 30 minutes) (excitation wavelength 380 nm, detection wavelength 460 nm). A linear approximation of the increase in the fluorescence of the AMC released from the substrate by chymase activity was generated, and its slope was taken as the initial velocity […]. For control, samples were treated and analyzed in the same manner in two cases: use of a 30N or 40N (a nucleotide of 30 or 40 consecutive bases represented by N; N is A, G, C or T) nucleic acid pool (negative control), and use of chymostatin, a known chymotrypsin-like serine protease inhibitor (positive control). Taking the initial reaction velocity without the nucleic acid and inhibitor (V_0) as a 100% enzyme activity, the inhibitory rate of each test substance was calculated using the following equation: […]
Turning to B7, the IC50 (as a rule, the concentration at which inhibition is half-maximal) was found to be 235 nM.

In the case of B8, the IC50 is 282 nM.

Regarding B9, the IC50 stood at 137 nM.

With B10, the IC50 worked out at 155 nM.

For B11, the IC50 stood at 145 nM.

B12: the IC50 came out at 105 nM.

Take B13: the IC50 is 45 nM.

The next series concerns the target T2, chymase (recombinant). In words: inhibition; SPR ++. Conditions: tags: SIGMA, expressed in yeast. Here is the method: as §1, with “By” for “Here, Suc is a protecting succinyl group, and MCA is a 4-methylcoumaryl-7-amide group; upon cleavage of the C-terminal side of phenylalanine, AMC (7-amino-4-methyl-coumarine) is released. By”
All nucleic acids of SEQ ID NO: 58-68 were prepared by chemical synthesis. Whether these nucleic acids are bound to chymase was assessed by surface plasmon resonance method in the same manner as in Example 4. The inhibitory activity on chymase was measured in the same manner as in Example 3.
As to GGGUUAGAUAGAGCUAAAAACCC (ssRNA, 2'-F pyrimidines) [SEQ 60], the IC50 is 26 nM.

With GGGUUAGAUAGAGAUAAAAACCC (ssRNA, 2'-F pyrimidines) [SEQ 59], the IC50 was found to be 38 nM.

The next series has as its target T2, chymase (recombinant). Kind of series: inhibition; SPR ++. Conditions: tags: SIGMA, expressed in yeast. The source holds these as a separate data set. The procedure:
as §1
Chymase inhibitory activity was determined in the same manner as Example 3.
UAACUAUGGUUAGAUAGAGUUAAAAACCAUAGAAGA (ssRNA, 2'-F pyrimidines) [SEQ 54]: the IC50 was determined as 51 nM.

For the molecule CGUUACAUAAUGUAUAUACCAGGGUAACUAAACAUAGAAGAGCGG (ssRNA, 2'-F pyrimidines) [SEQ 51], the IC50 was 24 nM.

As for GCAUUUGAGAUAGAUUUAAACAAACGC (ssRNA, 2'-F pyrimidines) [SEQ 57], the IC50 came to 99 nM.

For GGGUAACUAUGGUUAGAUAGAGUUAAAAACCAUAGAAGACCC (ssRNA, 2'-F pyrimidines) [SEQ 53], the IC50 turned out to be 66 nM.

As for CUAUGGUUAGAUAGAGUUAAAAACCAUAG (ssRNA, 2'-F pyrimidines) [SEQ 55], the IC50 turned out to be 55 nM.

As for GGCAUUCUACAGAUAGAGAUAAAGUAGAAUUUAAC (ssRNA, 2'-F pyrimidines) [SEQ 50], the IC50 was 138 nM.

Consider GGUUCUACAGAUAGAGAUAAAGUAGAACC (ssRNA, 2'-F pyrimidines) [SEQ 49], for which the IC50 was 117 nM.
